Assay results published in patent US9523084B2, “Phosphodeoxyribosyl transferase mutant enzymes and uses thereof” (Centre National De La Recherche Scientifique, priority 2012, dated 2016).

Experiments:
[1] = substrate: Nc1ccn([C@H]2C[C@H](O)[C@@H](COP(=O)(O)O)O2)c(=O)n1; experiment: Kinetic parameters of PDT variants with deoxycytidine 5'-mono, -di and -triphosphate as donors and adenine as acceptor; assay type: biochemical, Lactobacillus leichmannii; settings: 37.0 °C; for Km: adenine as acceptor, fixed
Protocol: (§1) The standard assay (“first protocol for enzyme assay”) for the different NDTs consisted of 5-15 μg of NDT in 50 mM MES buffer pH 6.0, dNxP (dNMP, or dNDP or dNTP) 3 mM and a base 1 mM in a total volume of 50 μL. Assays were incubated for 60 min at 37° C. The products of the reactions were analyzed each 7 min by Rapid resolution high performance liquid chromatography using a reverse-phase column (ZORBAX Eclipse XDB-C18 2.1*50 mm 1.8 μM) with a flow rate of 0.25 ml/min and a linear gradient of 1-12% CH3CN (2-25% CH3CN or 1-90% CH3CN) in 20 mM triethylammonium acetate, pH 7.5, buffer for 7 min. The low resolution mass spectra of the newly synthesized deoxyribonucleotides were obtained on an Agilent 1200 series LC/MS 6120 quadrupole system using an atmospheric electrospray ionization system.
This hypothesis was confirmed by monitoring the specific activity, in the presence of dCDP or dCTP as donor and adenine as acceptor (see table 2 above). The kinetic parameters were determined for the best variants with dCMP, dCDP and dCTP as substrates, at a concentration of A being fixed (see table 3 below).

[2] = Spectrophotometric assay coupled to xanthine oxidase (2,8-dihydroxyadenine at 301 nm); assay type: biochemical; settings: dATP + C ⇄ dCTP + A; 1 mM cytosine, 50 mM MES pH6.0, 37° C.
Protocol: (§2) Further, the cinetic parameters of these mutant enzymes were analysed, using a specific spectrophotometric assay. Briefly, the assay consists in measuring the formation of the final product (2,8 dihydroxyadenine) of the reaction:
(§3) Briefly, the assay was performed using the coupling of two enzymes: the variant (PDTT2, PDTT4, PDTT5, PDTT6, or PDTT7) to be tested and xanthine oxidase (obtained from Roche). The reaction mixture contained varying concentrations of dATP, 1 mM cytosine in a 50 mM MES buffer pH6.0 at 37° C. The reaction was initiated by adding 30 units of the purified variant to be tested and xanthine oxidase (Roche). The released adenine was then oxidized in 2,8-dihydroxyadenine which absorbs at 301 nm. The formation (i.e. concentration) of 2,8 dihydroxyadenine was measured by spectrophotometry.

[3] = Catalytic activity of PDTT2 to PDTT7, dATP formed (HPLC); assay type: biochemical; settings: dCTP + A ⇄ dATP + C; 2 mM dCTP, 1 mM Adenine, 37° C., MES 50 mM pH6.0
Protocol: In specific cases, an alternative protocol was used to perform the enzyme assay. In this second protocol, the dNxP (dNMP, or dNDP or dNTP) concentration was of only 2 mM, instead of 3 mM. All of the other conditions were identical to those of the first protocol.
The catalytic activity of the mutant enzymes PDTT2, PDTT3, PDTT3b, PDTT4, PDTT5, PDTT6, PDTT7 has been compared. Briefly, a sufficient amount of enzyme mutant necessary to obtain a linear reaction over a period of one hour at 37° C. has been mixed in 2 mM dCTP and 1 mM Adenine in a final volume of 50 μL of MES buffer 50 mM pH6.0. Assays were incubated for 60 min at 37° C. The products of the reactions were analyzed each 7 min by Rapid resolution high performance liquid chromatography using a reverse-phase column (ZORBAX Eclipse XDB-C18 2.1*50 mm […]) with a flow rate of 0.25 ml/min and a linear gradient of 1-12% CH3CN (2-25% CH3CN or 1-90% CH3CN) in 20 mM triethylammonium acetate, pH 7.5, buffer for 7 min.

[4] = In vitro synthesis of deoxynucleotide analogues: specific activities; assay type: biochemical
Protocol: as §1
The donor concentration was 3 mM and the acceptor 1 mM except for dCTP 2 mM 5-BrU 1 mM and dAMP 2 mM 5-FU 1 mM. Activities are expressed in nanomoles of deoxynucleotides synthesized per min per mg of protein.

[5] = Standard enzyme assay (HPLC): specific activities of PDT variants with natural purines and pyrimidines; assay type: biochemical; settings: donor 3 mM, acceptor 1 mM
Protocol: as §1
Unless specifically mentioned, the results presented hereafter have been obtained by using the first protocol for performing the enzyme assay.

[6] = substrate: Nc1ncnc2c1ncn2[C@H]1C[C@H](O)[C@@H](COP(=O)(O)OP(=O)(O)OP(=O)(O)O)O1; experiment: Spectrophotometric assay coupled to xanthine oxidase, dATP + C ⇄ dCTP + A; assay type: biochemical, Lactobacillus leichmannii; settings: 50 mM MES pH6.0, 37° C., pH 6.0
Protocol: as §2, §3

B1: Lactobacillus leichmannii nucleoside deoxyribosyltransferase (NDT, SEQ ID NO:1) variant PDTT1, R13 G92 T93 S123 K157 (F13R/D92G/V93T/N123S/Y157K), SEQ ID NO:9 … (protein)
chain: MPKKTIYFGAGWRTDRQNKAYKEAMEALKENPTIDLENSYVPLDNQYKGIRVDEHPEYLHDKVWATATYNNDLNGIKTNDIMLGVYIPDEEGTGLGMELGYALSQGKYVLLVIPDEDYGKPISLMSWGVSDNVIKMSQLKDFNFNKPRFDFYEGAVK
notes: homohexamer (108 kDa)
- kcat ([1]; other: PDTT1, first line, adenine acceptor, molecular mass of 108 kDa): 0.46 s⁻¹
- Km ([1]; other: PDTT1, first line): 4100 µM
- Km ([1]; other: PDTT1, second line of the table): 8900 µM
- Km ([1]; other: PDTT1, third line of the table): 5500 µM

B2: PDTT7: PDTT3b mutant with Arginine at position 157, SEQ ID NO:42 (protein)
chain: MPKKTIYFGAGWRTDRQNKAYKEAMEALKENPTIDLENSYVPLDNQYKGIRVDEHPEYLHDKVWATATYNNDLNGIKTNDIMLGVYIPDEQGGGLGMELGYALSQGKYVLLVIPDEDYGKPISLMSWGVSDNVIKMSQLKDFNFNKPRFDFYEGAVR
modifications: amino acid sequence of PDTT7 (G92/S123/R13/G93/R157/Q91)
- Km [2]: 2600 µM
- kcat [2]: 10 s⁻¹
- Catalytic activity (nmol of dATP formed/min/mg of enzyme protein) [3]: 17.9 nmol of dATP formed/min/mg of enzyme protein

B3: PDTT2: NDT mutant R13 Q91 G92 T93 S123, SEQ ID NO:10 (protein)
chain: MPKKTIYFGAGWRTDRQNKAYKEAMEALKENPTIDLENSYVPLDNQYKGIRVDEHPEYLHDKVWATATYNNDLNGIKTNDIMLGVYIPDEQGTGLGMELGYALSQGKYVLLVIPDEDYGKPISLMSWGVSDNVIKMSQLKDFNFNKPRFDFYEGAVY
modifications: PDTT2 enzyme mutant
- Specific activity ([4]; dAMP + 5-FU → A + 5-F-dUMP, dAMP 2 mM 5-FU 1 mM): 48.4 nanomoles of deoxynucleotides synthesized per min per mg of protein
- Specific activity ([4]; dCMP + 2,6-D → C + 2,6-DMP, donor 3 mM, acceptor 1 mM): 95.8 nanomoles of deoxynucleotides synthesized per min per mg of protein
- Specific activity ([4]; dCMP + 2,6-chloropurine → C + 2,6-dichloropurine 2′-deoxyribose 5′-monophosphate, donor 3 mM, acceptor 1 mM): 37 nanomoles of deoxynucleotides synthesized per min per mg of protein
- Specific activity ([4]; dCMP + 5-BrU → C + 5-Br-dUMP, donor 3 mM, acceptor 1 mM): 10.7 nanomoles of deoxynucleotides synthesized per min per mg of protein
- Specific activity ([4]; dCMP + 6-chloropurine → C + 6-chloropurine 2′-deoxyribose 5′-monophosphate, donor 3 mM, acceptor 1 mM): 75 nanomoles of deoxynucleotides synthesized per min per mg of protein
- Specific activity ([4]; dCTP + 2,6-D → C + 2,6-DTP, donor 3 mM, acceptor 1 mM): 17 nanomoles of deoxynucleotides synthesized per min per mg of protein
- Specific activity ([4]; dCTP + 2,6-chloropurine → C + 2,6-dichloropurine 2′-deoxyribose 5′-triphosphate, donor 3 mM, acceptor 1 mM): 14 nanomoles of deoxynucleotides synthesized per min per mg of protein
- Specific activity ([4]; dCTP + 5-BrU → C +5-Br-dUTP, dCTP 2 mM 5-BrU 1 mM): 12 nanomoles of deoxynucleotides synthesized per min per mg of protein
- Specific activity ([4]; dCTP + 5-FU → C + 5-F-dUTP, donor 3 mM, acceptor 1 mM): 39.4 nanomoles of deoxynucleotides synthesized per min per mg of protein
- Specific activity ([4]; dCTP + 6-chloropurine → C + 6-chloropurine 2′-deoxyribose 5′-triphosphate, donor 3 mM, acceptor 1 mM): 15 nanomoles of deoxynucleotides synthesized per min per mg of protein
- Specific activity ([4]; dCTPαS + A → C + dATPαS, donor 3 mM, acceptor 1 mM): 54 nanomoles of deoxynucleotides synthesized per min per mg of protein
- Catalytic activity (nmol of dATP formed/min/mg of enzyme protein) [3]: 9.6 nmol of dATP formed/min/mg of enzyme protein
- Specific activity ([5]; dADP + C ⇄ dCDP + A): 8 nanomoles of deoxynucleotides synthesized per min per mg of protein
- Specific activity ([5]; dADP + Hx ⇄ dIDP + A): <0.1 nanomoles of deoxynucleotides synthesized per min per mg of protein
- Specific activity ([5]; dAMP + C ⇄ dCMP + A): 31 nanomoles of deoxynucleotides synthesized per min per mg of protein
- Specific activity ([5]; dAMP + Hx ⇄ dIMP + A): <0.1 nanomoles of deoxynucleotides synthesized per min per mg of protein
- Specific activity ([5]; dATP + C ⇄ dCTP + A): 15 nanomoles of deoxynucleotides synthesized per min per mg of protein
- Specific activity ([5]; dATP + Hx ⇄ dITP + A): <0.1 nanomoles of deoxynucleotides synthesized per min per mg of protein
- Specific activity ([5]; dCDP + A ⇄ dADP + C): 66 nanomoles of deoxynucleotides synthesized per min per mg of protein
- Specific activity ([5]; dCDP + U ⇄ dUDP + C (U used as acceptor base instead of T)): 8 nanomoles of deoxynucleotides synthesized per min per mg of protein
- Specific activity ([5]; dCMP + A ⇄ dAMP + C): 286 nanomoles of deoxynucleotides synthesized per min per mg of protein
- Specific activity ([5]; dCMP + T ⇄ dTMP + C): 1.1 nanomoles of deoxynucleotides synthesized per min per mg of protein
- Specific activity ([5]; dCTP + A ⇄ dATP + C): 51 nanomoles of deoxynucleotides synthesized per min per mg of protein
- Specific activity ([5]; dCTP + T ⇄ dTTP + C): 1.4 nanomoles of deoxynucleotides synthesized per min per mg of protein
- Specific activity ([5]; dGDP + A ⇄ dADP + G): 33 nanomoles of deoxynucleotides synthesized per min per mg of protein
- Specific activity ([5]; dGMP + A ⇄ dAMP + G): 50 nanomoles of deoxynucleotides synthesized per min per mg of protein
- Specific activity ([5]; dGTP + A ⇄ dATP + G): 36 nanomoles of deoxynucleotides synthesized per min per mg of protein

B4: Lactobacillus leichmannii nucleoside deoxyribosyltransferase (NDT, SEQ ID NO:1) variant PDTT4, R13 Q91 G92 S93 S123 K157 (F13R/E91Q/D92G/V93S/N123S/Y157K), SEQ … (protein)
chain: MPKKTIYFGAGWRTDRQNKAYKEAMEALKENPTIDLENSYVPLDNQYKGIRVDEHPEYLHDKVWATATYNNDLNGIKTNDIMLGVYIPDEQGSGLGMELGYALSQGKYVLLVIPDEDYGKPISLMSWGVSDNVIKMSQLKDFNFNKPRFDFYEGAVK
notes: xanthine oxidase is coupling enzyme only
- Km ([6]; other: PDTT4, 1 mM cytosine): 2300 µM
- kcat ([6]; other: PDTT4, 1 mM cytosine): 8.8 s⁻¹
- kcat/Km ([6]; other: PDTT4, 1 mM cytosine): 3800 M⁻¹ s⁻¹

B5: Lactobacillus leichmannii nucleoside deoxyribosyltransferase (NDT, SEQ ID NO:1) variant PDTT5, R13 Q91 G92 P93 S123 R157 (F13R/E91Q/D92G/V93P/N123S/Y157R), SEQ … (protein)
chain: MPKKTIYFGAGWRTDRQNKAYKEAMEALKENPTIDLENSYVPLDNQYKGIRVDEHPEYLHDKVWATATYNNDLNGIKTNDIMLGVYIPDEQGPGLGMELGYALSQGKYVLLVIPDEDYGKPISLMSWGVSDNVIKMSQLKDFNFNKPRFDFYEGAVR
notes: as for B4
- Km ([6]; other: PDTT5, 1 mM cytosine): 200 µM
- kcat ([6]; other: PDTT5, 1 mM cytosine): 8.78 s⁻¹
- kcat/Km ([6]; other: PDTT5, 1 mM cytosine): 42800 M⁻¹ s⁻¹

B6: PDTT6: PDTT4 mutant with Arginine at position 157, SEQ ID NO:43 (protein)
chain: MPKKTIYFGAGWRTDRQNKAYKEAMEALKENPTIDLENSYVPLDNQYKGIRVDEHPEYLHDKVWATATYNNDLNGIKTNDIMLGVYIPDEQGSGLGMELGYALSQGKYVLLVIPDEDYGKPISLMSWGVSDNVIKMSQLKDFNFNKPRFDFYEGAVR
modifications: amino acid sequence of PDTT6 (G92/S123/R13/S93/R157/Q91)
- Km [2]: 500 µM
- kcat [2]: 10 s⁻¹
- Catalytic activity (nmol of dATP formed/min/mg of enzyme protein) [3]: 18.6 nmol of dATP formed/min/mg of enzyme protein
